Experimental data from article PMC5749889.

Target: light-harvesting complexes of G. phototrophica (light-harvesting antenna subunits, B868 inner ring and B816 outer ring) (G. phototrophica (endogenous in strain AP64))
Assay: negative-stain TEM with single particle analysis; freshly purified complexes on carbon-coated copper grids, 1.5% uranyl acetate, 200 kV, 2D class averages in RELION

stoichiometry N: 15
Substance: light-harvesting complexes of G. phototrophica (light-harvesting antenna subunits, B868 inner ring and B816 outer ring)
